Assay results as given in US11965039B2, “Compstatin analogues and their medical uses” (priority 2018, dated 2024).
Read-outs that look alike come from different tables or passages of the source. Positions of bridges follow the written chain, without caps; N, C: chain ends. Non-standard residues stand in square brackets, D forms with d. Trp(1-Me) = Cn1cc(C[C@H](N)C(=O)O)c2ccccc21; NMeI = CC[C@H](C)[C@H](NC)C(=O)O; Sar = CNCC(=O)O

Legend:
[1] = biological target: T1, Human C3 (Complement tech cat #A113c) (human, UniProt P01024 23-1663); assay: cell-based or functional assay
[2] = biological target: T1, Human C3 (Complement tech cat #A113c); assay: cell-based or functional assay; remark: listed apart in the source
[3] = biological target: T1, Human C3 (Complement tech cat #A113c); assay: SPR (Biacore T200), human C3 immobilised, peptide injected, 1:1 fit
How it was run: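 Human C3 amine-coupled on CM5 chips to about 3000 RU. Multi-cycle runs on Biacore T200 at 25° C: peptides at 6-8 rising concentrations, 60-120 s at 30 µL/min in 10 mM Tris pH 7.4, 150 mM NaCl, 0.05% Tween20, dissociation up to 10 min; 3 M MgCl2 regeneration. Kd derived.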

[4] = biological target: T1, Human C3 (Complement tech cat #A113c); assay: as above; remark: listed apart in the source
Description: Surface plasmon resonance (SPR) was used to characterize peptides with respect to their binding affinity (Kd) for C3. Human C3 (Complement tech cat #A113c) was immobilised on individual flow cells of CM5 sensor chips (GE Healthcare) using standard amine coupling to a density of approximately 3000 resonance units (RU) in a buffer consisting of 10 mM phosphate pH 7.4, 150 mM NaCl, 0.05% Tween20.
For interaction experiments a multi-cycle experiment approach was used and performed using a BiacoreT200™ instrument (GE Healthcare) at 25° C. Peptides were injected in increasing concentration series (6-8 different concentrations) for 60-120 sat a flow rate of 30 µL/min in a buffer consisting of 10 mM Tris buffer at pH 7.4, with 150 mM NaCl and 0.05% Tween20. This was followed by a dissociation period for up to 10 min. The C3 surface was regenerated between runs by a 45 s injection of 3 M MgCl_2.

T1 sequence (P01024 23-1663 limits assumed): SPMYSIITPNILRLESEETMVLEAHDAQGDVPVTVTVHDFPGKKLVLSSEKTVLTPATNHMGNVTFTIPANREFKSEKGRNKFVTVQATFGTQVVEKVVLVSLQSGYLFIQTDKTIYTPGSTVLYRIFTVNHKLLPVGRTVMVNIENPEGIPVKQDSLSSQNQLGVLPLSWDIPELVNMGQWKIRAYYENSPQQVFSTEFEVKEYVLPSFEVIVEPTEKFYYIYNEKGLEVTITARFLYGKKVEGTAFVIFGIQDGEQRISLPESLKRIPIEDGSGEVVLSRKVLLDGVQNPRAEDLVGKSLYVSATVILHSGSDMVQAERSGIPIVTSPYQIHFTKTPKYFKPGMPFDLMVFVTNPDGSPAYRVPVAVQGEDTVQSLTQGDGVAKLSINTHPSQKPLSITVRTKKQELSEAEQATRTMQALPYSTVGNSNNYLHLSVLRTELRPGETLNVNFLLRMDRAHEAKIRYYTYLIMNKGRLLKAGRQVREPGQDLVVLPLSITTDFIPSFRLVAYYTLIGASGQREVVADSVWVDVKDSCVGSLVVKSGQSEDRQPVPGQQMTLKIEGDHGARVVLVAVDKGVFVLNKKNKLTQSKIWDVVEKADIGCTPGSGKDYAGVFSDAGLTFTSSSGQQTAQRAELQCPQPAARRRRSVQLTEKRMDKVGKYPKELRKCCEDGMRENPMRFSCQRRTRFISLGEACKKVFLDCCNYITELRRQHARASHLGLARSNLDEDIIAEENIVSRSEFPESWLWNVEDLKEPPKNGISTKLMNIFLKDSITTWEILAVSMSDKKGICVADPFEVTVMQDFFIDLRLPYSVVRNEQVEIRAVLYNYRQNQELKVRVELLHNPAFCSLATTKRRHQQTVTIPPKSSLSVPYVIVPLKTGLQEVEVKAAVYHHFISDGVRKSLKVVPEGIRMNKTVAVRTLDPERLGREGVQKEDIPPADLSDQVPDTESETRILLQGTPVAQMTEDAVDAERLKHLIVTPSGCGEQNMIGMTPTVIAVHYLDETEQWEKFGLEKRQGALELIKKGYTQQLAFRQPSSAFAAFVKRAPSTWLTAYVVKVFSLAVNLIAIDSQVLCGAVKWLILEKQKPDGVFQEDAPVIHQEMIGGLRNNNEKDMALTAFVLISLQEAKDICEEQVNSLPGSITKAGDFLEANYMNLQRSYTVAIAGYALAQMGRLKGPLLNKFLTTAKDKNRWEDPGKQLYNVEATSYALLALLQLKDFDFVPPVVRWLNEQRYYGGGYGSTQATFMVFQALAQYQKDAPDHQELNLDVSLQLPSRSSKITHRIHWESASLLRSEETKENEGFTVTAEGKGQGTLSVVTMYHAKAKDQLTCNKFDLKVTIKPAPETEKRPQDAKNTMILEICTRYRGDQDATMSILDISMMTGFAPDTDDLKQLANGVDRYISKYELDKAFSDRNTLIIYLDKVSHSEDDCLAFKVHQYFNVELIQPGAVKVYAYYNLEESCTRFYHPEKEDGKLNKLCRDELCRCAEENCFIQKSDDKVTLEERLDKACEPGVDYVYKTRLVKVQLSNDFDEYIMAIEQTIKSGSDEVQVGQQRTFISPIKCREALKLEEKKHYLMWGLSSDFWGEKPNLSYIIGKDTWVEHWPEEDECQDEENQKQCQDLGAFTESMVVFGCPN

Row | Kd [3] [nM] | Kd [4] [nM] | Binder | inhibition of hemolysis IC50 [1] [nM] | CP hemolysis IC50 [2] [nM]
1 | 44 | – | Ac-EGSAICIWQDWGEHRC[Sar]E-NH2 (disulfide 6-16; SMILES CC[C@H](C)[C@H](NC(=O)[C@H](C)NC(=O)[C@H](CO)NC(=O)CNC(=O)[C@H](CCC(=O)O)NC(C)=O)C(=O)N[C@H]1CSSC[C@@H](C(=O)N(C)CC(=O)N[C@@H](CCC(=O)O)C(N)=O)NC(=O)[C@H](CCCNC(=N)N)NC(=O)[C@H](Cc2c[nH]cn2)NC(=O)[C@H](CCC(=O)O)NC(=O)CNC(=O)[C@H](Cc2c[nH]c3ccccc23)NC(=O)[C@H](CC(=O)O)NC(=O)[C@H](CCC(N)=O)NC(=O)[C@H](Cc2c[nH]c3ccccc23)NC(=O)[C@H]([C@@H](C)CC)NC1=O) [Compound 28] | < 100 | 88
2 | 37 | – | Ac-ICIWQDWGEHSCT-NH2 (disulfide 2-12; SMILES CC[C@H](C)[C@H](NC(C)=O)C(=O)N[C@H]1CSSC[C@@H](C(=O)N[C@H](C(N)=O)[C@@H](C)O)NC(=O)[C@H](CO)NC(=O)[C@H](Cc2c[nH]cn2)NC(=O)[C@H](CCC(=O)O)NC(=O)CNC(=O)[C@H](Cc2c[nH]c3ccccc23)NC(=O)[C@H](CC(=O)O)NC(=O)[C@H](CCC(N)=O)NC(=O)[C@H](Cc2c[nH]c3ccccc23)NC(=O)[C@H]([C@@H](C)CC)NC1=O) [Compound 20] | < 100 | 59
3 | – | 160 | Ac-ICVWQDWGEHRCS-NH2 (disulfide 2-12; SMILES CC[C@H](C)[C@H](NC(C)=O)C(=O)N[C@H]1CSSC[C@@H](C(=O)N[C@@H](CO)C(N)=O)NC(=O)[C@H](CCCNC(=N)N)NC(=O)[C@H](Cc2c[nH]cn2)NC(=O)[C@H](CCC(=O)O)NC(=O)CNC(=O)[C@H](Cc2c[nH]c3ccccc23)NC(=O)[C@H](CC(=O)O)NC(=O)[C@H](CCC(N)=O)NC(=O)[C@H](Cc2c[nH]c3ccccc23)NC(=O)[C@H](C(C)C)NC1=O) [Compound G] | – | 180
4 | 16 | 16 | Ac-ICIWQDWGEHRCS-NH2 (disulfide 2-12; SMILES CC[C@H](C)[C@H](NC(C)=O)C(=O)N[C@H]1CSSC[C@@H](C(=O)N[C@@H](CO)C(N)=O)NC(=O)[C@H](CCCNC(=N)N)NC(=O)[C@H](Cc2c[nH]cn2)NC(=O)[C@H](CCC(=O)O)NC(=O)CNC(=O)[C@H](Cc2c[nH]c3ccccc23)NC(=O)[C@H](CC(=O)O)NC(=O)[C@H](CCC(N)=O)NC(=O)[C@H](Cc2c[nH]c3ccccc23)NC(=O)[C@H]([C@@H](C)CC)NC1=O) [Compound 21] | < 100 | 77
5 | – | – | Ac-ICVWQDWGEHRCTEGE-NH2 (disulfide 2-12; SMILES CC[C@H](C)[C@H](NC(C)=O)C(=O)N[C@H]1CSSC[C@@H](C(=O)N[C@H](C(=O)N[C@@H](CCC(=O)O)C(=O)NCC(=O)N[C@@H](CCC(=O)O)C(N)=O)[C@@H](C)O)NC(=O)[C@H](CCCNC(=N)N)NC(=O)[C@H](Cc2c[nH]cn2)NC(=O)[C@H](CCC(=O)O)NC(=O)CNC(=O)[C@H](Cc2c[nH]c3ccccc23)NC(=O)[C@H](CC(=O)O)NC(=O)[C@H](CCC(N)=O)NC(=O)[C@H](Cc2c[nH]c3ccccc23)NC(=O)[C@H](C(C)C)NC1=O) [Compound J] | – | 240
6 | – | – | Ac-ICIWQDWGSHRCT-NH2 (disulfide 2-12; SMILES CC[C@H](C)[C@H](NC(C)=O)C(=O)N[C@H]1CSSC[C@@H](C(=O)N[C@H](C(N)=O)[C@@H](C)O)NC(=O)[C@H](CCCNC(=N)N)NC(=O)[C@H](Cc2c[nH]cn2)NC(=O)[C@H](CO)NC(=O)CNC(=O)[C@H](Cc2c[nH]c3ccccc23)NC(=O)[C@H](CC(=O)O)NC(=O)[C@H](CCC(N)=O)NC(=O)[C@H](Cc2c[nH]c3ccccc23)NC(=O)[C@H]([C@@H](C)CC)NC1=O) [Compound 6] | < 250 | 140
7 | 28 | – | Ac-ICIWQDWGEHRCTEGE-NH2 (disulfide 2-12; SMILES CC[C@H](C)[C@H](NC(C)=O)C(=O)N[C@H]1CSSC[C@@H](C(=O)N[C@H](C(=O)N[C@@H](CCC(=O)O)C(=O)NCC(=O)N[C@@H](CCC(=O)O)C(N)=O)[C@@H](C)O)NC(=O)[C@H](CCCNC(=N)N)NC(=O)[C@H](Cc2c[nH]cn2)NC(=O)[C@H](CCC(=O)O)NC(=O)CNC(=O)[C@H](Cc2c[nH]c3ccccc23)NC(=O)[C@H](CC(=O)O)NC(=O)[C@H](CCC(N)=O)NC(=O)[C@H](Cc2c[nH]c3ccccc23)NC(=O)[C@H]([C@@H](C)CC)NC1=O, also called Comp No 24) [Compound 24] | < 100 | 90
8 | – | – | Ac-ESSAICIWQDWGEHRCT-NH2 (disulfide 6-16; SMILES CC[C@H](C)[C@H](NC(=O)[C@H](C)NC(=O)[C@H](CO)NC(=O)[C@H](CO)NC(=O)[C@H](CCC(=O)O)NC(C)=O)C(=O)N[C@H]1CSSC[C@@H](C(=O)N[C@H](C(N)=O)[C@@H](C)O)NC(=O)[C@H](CCCNC(=N)N)NC(=O)[C@H](Cc2c[nH]cn2)NC(=O)[C@H](CCC(=O)O)NC(=O)CNC(=O)[C@H](Cc2c[nH]c3ccccc23)NC(=O)[C@H](CC(=O)O)NC(=O)[C@H](CCC(N)=O)NC(=O)[C@H](Cc2c[nH]c3ccccc23)NC(=O)[C@H]([C@@H](C)CC)NC1=O) [Compound 3] | < 100 | 69
9 | – | – | Ac-ICIWQDWGAHSCT-NH2 (disulfide 2-12; SMILES CC[C@H](C)[C@H](NC(C)=O)C(=O)N[C@H]1CSSC[C@@H](C(=O)N[C@H](C(N)=O)[C@@H](C)O)NC(=O)[C@H](CO)NC(=O)[C@H](Cc2c[nH]cn2)NC(=O)[C@H](C)NC(=O)CNC(=O)[C@H](Cc2c[nH]c3ccccc23)NC(=O)[C@H](CC(=O)O)NC(=O)[C@H](CCC(N)=O)NC(=O)[C@H](Cc2c[nH]c3ccccc23)NC(=O)[C@H]([C@@H](C)CC)NC1=O) [Compound 19] | < 250 | 140
10 | 0.12 | 0.12 | H-[dY]ICI[Trp(1-Me)]QDW[Sar]AHRC[NMeI]-NH2 (disulfide 3-13; SMILES CC[C@H](C)[C@H](NC(=O)[C@H](N)Cc1ccc(O)cc1)C(=O)N[C@H]1CSSC[C@@H](C(=O)N(C)[C@H](C(N)=O)[C@@H](C)CC)NC(=O)[C@H](CCCNC(=N)N)NC(=O)[C@H](Cc2c[nH]cn2)NC(=O)[C@H](C)NC(=O)CN(C)C(=O)[C@H](Cc2c[nH]c3ccccc23)NC(=O)[C@H](CC(=O)O)NC(=O)[C@H](CCC(N)=O)NC(=O)[C@H](Cc2cn(C)c3ccccc23)NC(=O)[C@H]([C@@H](C)CC)NC1=O) [Compound 48] | < 100 | –
11 | 14 | 14 | Ac-ICIWQDWGEHRCTGAES-NH2 (disulfide 2-12; SMILES CC[C@H](C)[C@H](NC(C)=O)C(=O)N[C@H]1CSSC[C@@H](C(=O)N[C@H](C(=O)NCC(=O)N[C@@H](C)C(=O)N[C@@H](CCC(=O)O)C(=O)N[C@@H](CO)C(N)=O)[C@@H](C)O)NC(=O)[C@H](CCCNC(=N)N)NC(=O)[C@H](Cc2c[nH]cn2)NC(=O)[C@H](CCC(=O)O)NC(=O)CNC(=O)[C@H](Cc2c[nH]c3ccccc23)NC(=O)[C@H](CC(=O)O)NC(=O)[C@H](CCC(N)=O)NC(=O)[C@H](Cc2c[nH]c3ccccc23)NC(=O)[C@H]([C@@H](C)CC)NC1=O) [Compound 15] | < 100 | 47
12 | – | 230 | Ac-ICVWQDWGEHRCTGAES-NH2 (disulfide 2-12; SMILES CC[C@H](C)[C@H](NC(C)=O)C(=O)N[C@H]1CSSC[C@@H](C(=O)N[C@H](C(=O)NCC(=O)N[C@@H](C)C(=O)N[C@@H](CCC(=O)O)C(=O)N[C@@H](CO)C(N)=O)[C@@H](C)O)NC(=O)[C@H](CCCNC(=N)N)NC(=O)[C@H](Cc2c[nH]cn2)NC(=O)[C@H](CCC(=O)O)NC(=O)CNC(=O)[C@H](Cc2c[nH]c3ccccc23)NC(=O)[C@H](CC(=O)O)NC(=O)[C@H](CCC(N)=O)NC(=O)[C@H](Cc2c[nH]c3ccccc23)NC(=O)[C@H](C(C)C)NC1=O) [Compound D] | – | 210
